Laboratory results: patent US20190389957A1 (SINGAPORE HEALTH SERVICES PTE, published 2019)

T1: Human IL-11Rα endogenously expressed on primary human cells (human, UniProt Q14626 23-422)
T1 sequence (looked up): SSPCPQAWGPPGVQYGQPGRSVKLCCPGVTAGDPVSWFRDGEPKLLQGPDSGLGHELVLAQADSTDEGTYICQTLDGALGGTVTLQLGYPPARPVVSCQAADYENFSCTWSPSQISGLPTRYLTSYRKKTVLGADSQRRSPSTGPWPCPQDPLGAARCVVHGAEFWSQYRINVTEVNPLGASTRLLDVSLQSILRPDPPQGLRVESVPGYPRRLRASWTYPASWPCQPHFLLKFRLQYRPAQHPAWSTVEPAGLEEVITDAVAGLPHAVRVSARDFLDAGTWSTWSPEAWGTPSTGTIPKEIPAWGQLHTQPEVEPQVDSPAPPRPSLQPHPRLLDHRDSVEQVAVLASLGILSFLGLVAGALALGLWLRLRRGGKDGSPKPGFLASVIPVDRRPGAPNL

T2: IL-11Rα as used in the Biacore kinetics of Example 14 (UniProt Q14626 23-363, limits assumed)
T2 sequence (looked up): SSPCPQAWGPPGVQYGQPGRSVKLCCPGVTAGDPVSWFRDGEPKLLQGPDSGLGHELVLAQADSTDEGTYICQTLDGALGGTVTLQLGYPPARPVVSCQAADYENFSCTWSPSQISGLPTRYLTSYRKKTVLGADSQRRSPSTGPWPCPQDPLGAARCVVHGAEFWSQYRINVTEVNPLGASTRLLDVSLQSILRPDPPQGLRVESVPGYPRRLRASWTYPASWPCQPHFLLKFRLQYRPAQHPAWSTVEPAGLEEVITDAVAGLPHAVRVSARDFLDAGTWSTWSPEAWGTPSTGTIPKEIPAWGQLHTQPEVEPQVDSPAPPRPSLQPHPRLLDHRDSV


Legend:
[1] = target: Human IL-11, endogenously produced by TGFβ1-stimulated human cells (human) (UniProt P20809); assay: cell-based or functional assay
[2] = target: Mouse IL-11, endogenously produced by TGFβ1-stimulated mouse atrial fibroblasts (mouse) (UniProt P47873); assay: cell-based or functional assay
[3] = target: T1, Human IL-11Rα endogenously expressed on …; assay: cell-based or functional assay
[4] = target: T1, Human IL-11Rα endogenously expressed on …; assay: cell-based or functional assay; remark: listed apart in the source
[5] = target: T1, Human IL-11Rα endogenously expressed on …; assay: cell-based or functional assay; remark: listed apart in the source
[6] = target: T2, IL-11Rα as used in the Biacore kinetics …; assay: SPR (Biacore T200), multi-cycle kinetics, 25 C, HBS-P+ pH 7.4 with 0.1% BSA
Description: The six antibodies were assessed by multi-cycle kinetics analysis at a final concentration of 1 μg/ml, run at 25° C. with HBS-P+ running buffer (pH 7.4) containing 0.1% BSA using a Biacore T200 instrument.
The relative KD was calculated by dividing the KD of the humanised variant by that of the 9A7 antibody assayed in the same experiment. All six humanised antibodies bound to IL-11R within two-fold of 9A7 (SEQ ID NO:7 and 13).

Chain of Mouse IL-11, endogenously produced by TGFβ1-stimulated mouse atrial fibroblasts (mouse) (P47873 22-199 limits assumed): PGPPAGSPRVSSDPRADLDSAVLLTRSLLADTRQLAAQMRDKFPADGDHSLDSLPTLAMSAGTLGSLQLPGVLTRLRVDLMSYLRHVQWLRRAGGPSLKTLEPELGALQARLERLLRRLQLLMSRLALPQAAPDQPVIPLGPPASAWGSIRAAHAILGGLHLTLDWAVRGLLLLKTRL
Chain of Human IL-11, endogenously produced by TGFβ1-stimulated human cells (human) (P20809 22-199 limits assumed): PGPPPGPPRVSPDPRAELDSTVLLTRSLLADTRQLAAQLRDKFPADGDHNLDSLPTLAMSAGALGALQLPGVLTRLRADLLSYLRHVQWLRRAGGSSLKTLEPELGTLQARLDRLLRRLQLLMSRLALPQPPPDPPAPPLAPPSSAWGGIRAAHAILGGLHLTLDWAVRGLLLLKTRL

Molecule | fold change in percentage of αSMA-positive (activated) human atrial fibroblasts against unstimulated cultures, TGFβ1 5 ng/ml, 24 h [1] [fold] | fold change in percentage of αSMA-positive (activated) mouse atrial fibroblasts against unstimulated cultures, TGFβ1, 24 h [2] [fold] | IC50 of inhibition of MMP2 secretion, human hepatic stellate cells + TGFβ1 5 ng/ml (panel 'VH3/VL3') [3] [µg/mL] | IC50 of inhibition of TIMP1 secretion, primary human lung fibroblasts + TGFB1 5 ng/ml (panel 'VH3/VL3') [4] [µg/mL] | IC50 of inhibition of MMP2 secretion, primary human atrial fibroblasts + TGFβ1 (panel 'VH3/VL3') [5] [µg/mL] | Kd [6] [nM] | koff [6] [s⁻¹] | kon [6] [M⁻¹ s⁻¹] | relative KD (KD divided by KD of 9A7) [6] | IC50 of inhibition of MMP2 secretion, primary human atrial fibroblasts + TGFβ1 (panel 'VH4/VL2') [5] [µg/mL] | IC50 of inhibition of MMP2 secretion, human hepatic stellate cells + TGFβ1 5 ng/ml (panel 'VH4/VL4') [3] [µg/mL] | IC50 of inhibition of TIMP1 secretion, primary human lung fibroblasts + TGFB1 5 ng/ml (panel 'VH4/VL4') [4] [µg/mL] | IC50 of inhibition of MMP2 secretion, primary human atrial fibroblasts + TGFβ1 (panel 'VH4/VL3') [5] [µg/mL]
Commercial monoclonal mouse anti-IL-11 antibody (Monoclonal Mouse IgG2A; Clone #22626; Catalog No. MAB218; R&D Systems) | 0.89 | 1.44 |  |  |  |  |  |  |  |  |  |  | 
Humanised BSO-9A7 variant VH3/VL3 (antibody, V domains shown, Variable domains only) VH: QVQLVQSGAEVKKPGASVKVSCKASGYTFTNYWMHWLRQRPGQGLEWIGNIGPSDSKTHYNQKFKDRATLTVDKSTSTAYMELSSLRSEDTAVYYCARGDYVLFTYWGQGTLVTVSS VL: DIVLTQSPATLSLSPGERATLSCRASQSISNNLHWYQQKPGQAPRLLIKYASQSISGIPARFSGSGSGTDFTLTISSLEPEDFAVYFCQQSYSWPLTFGQGTKLEIK |  |  | 0.0233 | 0.0274 | 0.0326 | 3.61 | 0.000751 | 208000 | 0.84 ratio to 9A7 |  |  |  | 
Humanised BSO-9A7 variant VH3/VL4 (antibody, V domains shown, Variable domains only) VH: QVQLVQSGAEVKKPGASVKVSCKASGYTFTNYWMHWLRQRPGQGLEWIGNIGPSDSKTHYNQKFKDRATLTVDKSTSTAYMELSSLRSEDTAVYYCARGDYVLFTYWGQGTLVTVSS VL: DIVLTQSPATLSLSPGERATLSCRASQSISNNLHWYQQKPGQAPRLLIKYASQSISGIPARFSGSGSGTDFTLTISSLEPEDFAVYYCQQSYSWPLTFGQGTKLEIK |  |  |  |  |  | 3.71 | 0.000747 | 201000 | 0.86 ratio to 9A7 |  |  |  | 
Humanised BSO-9A7 variant VH3/VL2 (antibody, V domains shown, T0003 heads the columns 'Heavy chain' and 'Light chain', but the entries are variable domains) VH: QVQLVQSGAEVKKPGASVKVSCKASGYTFTNYWMHWLRQRPGQGLEWIGNIGPSDSKTHYNQKFKDRATLTVDKSTSTAYMELSSLRSEDTAVYYCARGDYVLFTYWGQGTLVTVSS VL: DIVLTQSPATLSLSPGERATLSCRASQSISNNLHWYQQKSGQAPRLLIKYASQSISGIPARFSGSGSGTDFTLTISSLETEDFAVYFCQQSYSWPLTFGQGTKLEIK |  |  |  |  |  | 3.63 | 0.000801 | 221000 | 0.85 ratio to 9A7 |  |  |  | 

Second part, the molecule after the results:

fold change in percentage of αSMA-positive (activated) human atrial fibroblasts against unstimulated cultures, TGFβ1 5 ng/ml, 24 h [1] [fold] | fold change in percentage of αSMA-positive (activated) mouse atrial fibroblasts against unstimulated cultures, TGFβ1, 24 h [2] [fold] | IC50 of inhibition of MMP2 secretion, human hepatic stellate cells + TGFβ1 5 ng/ml (panel 'VH3/VL3') [3] [µg/mL] | IC50 of inhibition of TIMP1 secretion, primary human lung fibroblasts + TGFB1 5 ng/ml (panel 'VH3/VL3') [4] [µg/mL] | IC50 of inhibition of MMP2 secretion, primary human atrial fibroblasts + TGFβ1 (panel 'VH3/VL3') [5] [µg/mL] | Kd [6] [nM] | koff [6] [s⁻¹] | kon [6] [M⁻¹ s⁻¹] | relative KD (KD divided by KD of 9A7) [6] | IC50 of inhibition of MMP2 secretion, primary human atrial fibroblasts + TGFβ1 (panel 'VH4/VL2') [5] [µg/mL] | IC50 of inhibition of MMP2 secretion, human hepatic stellate cells + TGFβ1 5 ng/ml (panel 'VH4/VL4') [3] [µg/mL] | IC50 of inhibition of TIMP1 secretion, primary human lung fibroblasts + TGFB1 5 ng/ml (panel 'VH4/VL4') [4] [µg/mL] | IC50 of inhibition of MMP2 secretion, primary human atrial fibroblasts + TGFβ1 (panel 'VH4/VL3') [5] [µg/mL] | Molecule
 |  |  |  |  | 5.67 | 0.000932 | 164000 | 1.32 ratio to 9A7 | 0.0111 |  |  |  | Humanised BSO-9A7 variant VH4/VL2 (antibody, V domains shown, Variable domains only) VH: QVQLVQSGAEVKKPGASVKVSCKASGYTFTNYWMHWLRQRPGQGLEWIGNIGPSDSKTHYNQKFKDRVTMTVDKSTSTAYMELSSLRSEDTAVYYCARGDYVLFTYWGQGTLVTVSS VL: DIVLTQSPATLSLSPGERATLSCRASQSISNNLHWYQQKSGQAPRLLIKYASQSISGIPARFSGSGSGTDFTLTISSLETEDFAVYFCQQSYSWPLTFGQGTKLEIK
 |  |  |  |  | 5.55 | 0.000781 | 141000 | 1.29 ratio to 9A7 |  | 0.00315 | 0.00419 |  | Humanised BSO-9A7 variant VH4/VL4 (antibody, V domains shown, Variable domains only; also called printed once as VH4/VH4) VH: QVQLVQSGAEVKKPGASVKVSCKASGYTFTNYWMHWLRQRPGQGLEWIGNIGPSDSKTHYNQKFKDRVTMTVDKSTSTAYMELSSLRSEDTAVYYCARGDYVLFTYWGQGTLVTVSS VL: DIVLTQSPATLSLSPGERATLSCRASQSISNNLHWYQQKPGQAPRLLIKYASQSISGIPARFSGSGSGTDFTLTISSLEPEDFAVYYCQQSYSWPLTFGQGTKLEIK
 |  |  |  |  | 5.57 | 0.000992 | 178000 | 1.3 ratio to 9A7 |  |  |  | 0.0647 | Humanised BSO-9A7 variant VH4/VL3 (antibody, V domains shown, Variable domains only) VH: QVQLVQSGAEVKKPGASVKVSCKASGYTFTNYWMHWLRQRPGQGLEWIGNIGPSDSKTHYNQKFKDRVTMTVDKSTSTAYMELSSLRSEDTAVYYCARGDYVLFTYWGQGTLVTVSS VL: DIVLTQSPATLSLSPGERATLSCRASQSISNNLHWYQQKPGQAPRLLIKYASQSISGIPARFSGSGSGTDFTLTISSLEPEDFAVYFCQQSYSWPLTFGQGTKLEIK
